Reference: paper PMC3270550

Molecular target: HIV-1 envelope glycoprotein gp120 (UniProt P04578)
Assay: binding assay (method not named in legend)
Conditions: read off a plot; for other: relative affinity (hCD4-M = 1): parent: est. 0.63

| Substance | other: relative affinity (hCD4-M = 1) | ratio to parent (parent: 1) |
| --- | --- | --- |
| mCD4-M, murine CD4 mimetic peptide (residues 22-66) I23C; E65C | 4 |  |
| mCD4-M, murine CD4 mimetic peptide (residues 22-66) V44A; K60A; K61A | 0.14 |  |
| hCD4-M, human CD4 mimetic peptide (residues 22-64), N-terminal Cys form F43A; R58A; R59A |  | 0.24 |
